We go through 142 substances from the supplement of paper PMC12042874.

± gives the uncertainty stated by the source.

The nature of the data set: amyloid nucleation score (Sup35N fusion, yeast selection) (log enrichment); library NNK1; higher = more nucleation; inactive = no reads after selection. An outline of the steps: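 Nucleation score is defined as the DiMSum log enrichment of output over input reads, with centring on the mode score of non-aggregating sequences. A minimum of 100 input reads was required for each sequence. Reads came from Illumina sequencing of plasmid inserts from psi-negative yeast expressing Sup35N fused to peptides of 20 random codons, induced with 100 μM copper sulfate for 24 hours and grown 7 days at 30°C on medium lacking adenine and uracil.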

In turn, YKSLLGRAVMFKRHQPGPRA registered an amyloid nucleation score of 0.248 ± 0.39.

CEKTWNLRDCSGLLQVTRG had an amyloid nucleation score of 0.099 ± 0.29.

Take FMGIGPDVEDLLW: the amyloid nucleation score was -0.538 ± 0.41. Under YSLIVTRCC stands -0.468 ± 0.41; under IFCYMNYGS, 0.554 ± 0.51; under TDSAVRDWTRR, 0.532 ± 0.79. With RYDSVFVIS the figure was -0.129 ± 1.2. WIFIGTIPILLIGDRRSANV returned an amyloid nucleation score of 6.35 ± 0.066.

Take LFCFNRVD: the amyloid nucleation score entry is “inactive”. Under GLVVIGRSCDDYESIMTRSM stands 0.171 ± 0.41. On to TWIMIGDHFVAGLGYRERD, for which the amyloid nucleation score is -0.893 ± 0.43. Under SLYYEG stands 0.867 ± 0.45; under WMYDSLDTSMTLANSHLQTL, -0.098 ± 0.51. With IVFDSLRGCSF the entry was “inactive”; with SDYRRPKEPVSS, 3.01 ± 0.16. For the substance KFLRGYSCNVRSRPTRDRSV, the amyloid nucleation score entry was “inactive”. Under IFYYNRCWLTRYRVICLESI stands -1.38 ± 0.51; under PAVCLCNGRMDVSKNLWLCF, 7.445 ± 0.061. Turning to QFLRALGYAERRVGRRWLGW, the amyloid nucleation score is -0.065 ± 0.71. With LINHIS, the amyloid nucleation score turned out to be 0.444 ± 0.9. For ASDMSCMQSNSYFNLWTYTM, the amyloid nucleation score amounted to 1.32 ± 0.4. With DRDASSLGFIFFFGCLEGLT the figure was -0.93 ± 0.76; with YIMILSYAVNKSYFTRLSCN, -0.459 ± 0.67; with GLYIFYLSNWLFHPRF, 0.339 ± 0.43. Under FSRISCFP stands 0.638 ± 0.61; under HEVWH, -0.379 ± 0.55. For the substance ICGQLPISMGVLSIFWWFES, the amyloid nucleation score is 0.331 ± 0.79.

As to DYFIKWFIYRPLTS, the amyloid nucleation score was -0.504 ± 0.6. Under YGLIGM stands 0.24 ± 0.37; under IGDRNVNLGVQVVVMKE, 7.031 ± 0.048; under KNKGCGGKAEYTLAPIEISM, 0.364 ± 0.55.

CGMARWSRKSTELAHKQNVD yielded an amyloid nucleation score of 0.277 ± 0.61.

In the case of WRSSHNDKMSY, the amyloid nucleation score is -0.889 ± 0.46.

The substance NESRM yielded an amyloid nucleation score of 1.08 ± 0.58.

In turn, TFQLKMWEHVVLPDVSMAST returned an amyloid nucleation score of 0.669 ± 0.48. Under TDKSCRRNGTHAMVHFTPEL stands -1.99 ± 1.7.

For the substance SHELVKHGYKY, the amyloid nucleation score is -0.436 ± 0.47. Under DFSYSNPDFVFLTQYIAYEK stands 4.43 ± 0.06. With YGVVYNIWHFIEMKGDYTHA the figure was 6.869 ± 0.055; with YDVLEDSHELMMCFCVRGHW, -0.155 ± 1. Under SDMLYLQLVKLASWFHFNLK stands -0.199 ± 0.38; under GWRSGVWLGSV, -1.32 ± 0.77.

Regarding LMFSIFTYNFGKNWSSKSLG, the amyloid nucleation score was determined as 0.303 ± 0.52. For IAPTFSYMMERSLFTVGYDM, the amyloid nucleation score is -0.042 ± 0.41. With HDLEIPICTWEYSVVIQGLQ the figure was 0.005 ± 1.4; with EVAMVYFKCVLFITSDSKQR, -0.823 ± 1.1; with FTSRRATCDIGNSMNACFER, 1.5 ± 0.73. With RIGLWCACMCRATTPVRGIE the figure was -0.317 ± 0.46; with GSRYHEECRWTCREAPTDAR, -1.07 ± 1.6. Under SYKLAVIRKM stands -0.28 ± 0.24; under HEFHRLDVAVYRG, -0.132 ± 0.29; under DLLVNCDAVKLVYLSGYVDV, 0.342 ± 0.23.

KNFDHVKDHIVFQVL: the amyloid nucleation score is -1.27 ± 1. Under IHGNDPMLTVGSSMYV stands 0.323 ± 0.41; under DQSWSREWPCVLVHHVHYKD, 0.626 ± 0.28. With MQSLRLTESSGPFSLYFAFI the figure was -0.227 ± 0.81; with ACVMRIDAFFMTISVRLLRL, 1.79 ± 0.3; with LDILMGGGHTEDCTLPGHLS, 0.307 ± 0.36.

As to DKTGLGRRGPIIFSLSFRWS, the amyloid nucleation score was -1.55 ± 1.4.

Regarding KNDNAYCGWSWLLLTDSVHF, the amyloid nucleation score was -0.836 ± 0.42.

In the case of GGFHYAVDWSCLRNIVWADL, the amyloid nucleation score is -1.2 ± 2.4. Turning to VMAPERST, the amyloid nucleation score is -0.905 ± 1.6. With PWTTG the figure was 0.298 ± 0.24; with LYVFHRRYYWANYDDRYPLP, 0.613 ± 0.48; with CFDFYSYRVVSSAINYQFVM, -1.02 ± 0.39.

With VIHTRGNWSKRHVMIWISES, the amyloid nucleation score is -0.016 ± 1.2. As for EGLNNSLSSYTKDWAQVVLN, the amyloid nucleation score was -0.079 ± 0.32.

ILSLIVFNYDYCSKVWNLLG: the amyloid nucleation score is -1.53 ± 0.66. As for VYVVGLFQLVSITFLCRITV, the amyloid nucleation score came out at 0.153 ± 0.22. With WPGFLSRWIRLRLDWSHEV the figure was -1.06 ± 1.1; with WNNVGNTCMEPRSSLGCTLR, 0.147 ± 0.51; with TKILRP, 0.33 ± 0.22. Under NVSYRSYRFVHWVNLVGSMA stands “inactive”; under HLFTGNAYRGTRMGKLVGSH, 0.328 ± 0.41. Under LCCYAVYGLCLMHTYNWGCD stands 0.564 ± 0.73. As to YPCHSREMHYCREWVRDLST, the amyloid nucleation score was -0.396 ± 0.62. Under RRYWVIIIEVAGSRSVETPV stands -0.823 ± 0.51; under PYLNY, -0.153 ± 0.43. For the substance GLNSDGLWLLSLNTRKSRAH, the amyloid nucleation score was -0.349 ± 1.1. With GLLIGDT the figure was 0.437 ± 0.48; with AVKEGWLFSQVVVERGWNL, -0.588 ± 0.63.

LCDLWQHFSSSNVTGGLRRN had an amyloid nucleation score of 0.966 ± 0.54.

For PGVPPPKRA, the amyloid nucleation score was 0.294 ± 0.66.

Regarding ILRRRMHDG, the amyloid nucleation score was found to be 0.247 ± 1.4. Take ILLLVSISMVKESDQWLING: the amyloid nucleation score was -0.519 ± 0.51. With GKHSLSPVYLWYGNNY the figure was 0.707 ± 0.52; with FSDVQCG, “inactive”. Under CCLTILSIS stands -0.281 ± 0.31. For TQSCF, the amyloid nucleation score is 0.074 ± 0.84. In the case of TDSEVAFVNGTNSQRWFFGW, the amyloid nucleation score was found to be 1.07 ± 0.53.

In turn, HHLVLQRD registered an amyloid nucleation score of 0.347 ± 0.28. With KTLFMITYFGL the figure was 0.85 ± 0.26; with HHNNDSDYKLREN, 0.116 ± 0.48; with YLQVGASADWKLTYSGSGNV, 2.72 ± 0.23.

With MSLSAVSNMVLMKGVGMR, the amyloid nucleation score was -0.73 ± 0.93. With KIVSEFCL the figure was 0.36 ± 0.36.

As to HTVPILRSAVPDSDARAKSQ, the amyloid nucleation score stood at 0.493 ± 0.4. Under EIRKNTASMIMKLCIYIVGA stands -0.007 ± 0.45; under SGMCNIQPQTCQ, -0.351 ± 0.39. With YVYNFMYTVNCMVEPFWLEC the figure was 7.12 ± 0.048. With SYLTGAEFFSTVRK the figure was -0.745 ± 1.7; with TDVMSHGSAETGWCFLMSAF, 0.124 ± 0.7; with YYMRGTKRRIVRVYFWMLRC, 1.59 ± 0.4. For ELKSPCNVSPIWSRSRQTST, the amyloid nucleation score is 0.216 ± 0.68. Under TNVVRVSLCFYMY stands 8.776 ± 0.069; under ITQIADLWHKMT, -0.954 ± 0.89.

As to YRMIIVGLCFMVVHMAASRK, the amyloid nucleation score worked out at 0.514 ± 0.69. For VIHRIIDVLF, the amyloid nucleation score is -0.06 ± 0.57.

As for YFVHQNKHRTKIIILGLGLI, the amyloid nucleation score was determined as 1.35 ± 0.5. With FQATR the figure was -0.238 ± 0.32; with SSCYLCLVVYSFTS, 5.3 ± 0.072. Under KLLVLLNN stands “inactive”; under DGVEFPFRMIESRFNGCQD, -0.613 ± 0.77. Under LLRFTCSILLRA stands 0.437 ± 0.79; under RLCFRASRETFLCNRFNY, “inactive”; under NKNCLELCLTHGMLNQL, 0.25 ± 0.36. GQTVNCNATYFSVTIVGIVG yielded an amyloid nucleation score of 2.8 ± 0.13.

As for VSETAFLNTNKWGPKCLMWN, the amyloid nucleation score was -1.42 ± 1. Under ICFNFYITYSASDALSRTCY stands 8.287 ± 0.047. Under HSAITNCRRVVTALIYRRVM stands -0.875 ± 2.4. For the substance QTLDRNNARSSDNGCSVGGA, the amyloid nucleation score was -0.476 ± 1.9. As for PYYFEGGEAQTPRHSDGQWM, the amyloid nucleation score was -0.769 ± 0.56.

VDPYQVNYLNKLVTENYRVS: the amyloid nucleation score turned out to be 0.097 ± 0.33. In turn, SIASIIRRFNWDTK gave an amyloid nucleation score of 3.87 ± 0.095. Under KLVLSYRYNDG stands 2.17 ± 0.18.

Regarding WIVCCMWVYVLSLQL, the amyloid nucleation score was -1.06 ± 0.4. With AWKGRLAYKWIGNMMAGLVW the figure was 0.005 ± 0.32; with KNDVASLLLGSMLKANSTCC, 0.413 ± 1.4. Under CMIIRVGGRQGIHYSFSRMD stands -0.652 ± 0.26; under LLSVF, 0.484 ± 0.74. For NDACYWEFCYADKLYFEWWF, the amyloid nucleation score was 1.04 ± 0.44. With DSEDSNLSCLLYTQC the figure was 0.153 ± 0.16; with LVLGAVV, -0.104 ± 0.87; with PFIARAFKLMLAWVLFCRAA, 0.171 ± 0.75. With NVFCPVHENVSRLLQRHTRL the figure was 1.1 ± 0.53.

RLLFLMSWSSVVWINCRVWS: the amyloid nucleation score worked out at 0.657 ± 0.6. Under FVPVKFITIGSYVLHTGSLL stands 0.834 ± 0.73. VIKFWSQ yielded an amyloid nucleation score of 0.536 ± 0.77. Under QGKKPGGFQNEDMVVVLKWR stands -0.601 ± 0.46. TYSGYFVLAIISPRLDRLFT: the amyloid nucleation score is -1.1 ± 0.58. With YMKWTNDVNDTLDILFCVYL the figure was 3.84 ± 0.069; with TTMIRSYFREDYGQGPLMSW, 0.51 ± 1.2.
